Ends that are not written are not given here.

The text below walks through data of EP1789452B1 (Janssen Pharmaceutica NV, dated 2006).

Assay [1] concerns the target T1, human GPCR135 (human, UniProt Q9NSD7 1-469).
T1 construct: also called SALPR
T1 sequence: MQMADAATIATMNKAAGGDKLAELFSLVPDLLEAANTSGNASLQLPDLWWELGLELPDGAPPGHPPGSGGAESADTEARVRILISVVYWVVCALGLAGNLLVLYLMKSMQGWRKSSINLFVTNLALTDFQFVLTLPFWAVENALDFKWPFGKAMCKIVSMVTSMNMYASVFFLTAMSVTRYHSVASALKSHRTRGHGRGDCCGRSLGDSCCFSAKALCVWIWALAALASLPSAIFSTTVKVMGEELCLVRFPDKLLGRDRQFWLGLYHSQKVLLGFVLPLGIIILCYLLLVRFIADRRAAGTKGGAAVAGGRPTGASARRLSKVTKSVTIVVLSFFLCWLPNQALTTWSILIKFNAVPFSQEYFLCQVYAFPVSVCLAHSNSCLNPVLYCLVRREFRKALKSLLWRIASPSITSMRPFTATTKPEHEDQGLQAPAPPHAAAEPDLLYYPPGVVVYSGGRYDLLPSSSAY
Kind of assay: competition with 100 pM [125I]-relaxin-3, COS-7 membranes with human GPCR135.

Assay [2] concerns the target T2, human LGR7 (human, UniProt Q9HBX9 1-757).
T2 construct: whole, on cells
T2 sequence (looked up): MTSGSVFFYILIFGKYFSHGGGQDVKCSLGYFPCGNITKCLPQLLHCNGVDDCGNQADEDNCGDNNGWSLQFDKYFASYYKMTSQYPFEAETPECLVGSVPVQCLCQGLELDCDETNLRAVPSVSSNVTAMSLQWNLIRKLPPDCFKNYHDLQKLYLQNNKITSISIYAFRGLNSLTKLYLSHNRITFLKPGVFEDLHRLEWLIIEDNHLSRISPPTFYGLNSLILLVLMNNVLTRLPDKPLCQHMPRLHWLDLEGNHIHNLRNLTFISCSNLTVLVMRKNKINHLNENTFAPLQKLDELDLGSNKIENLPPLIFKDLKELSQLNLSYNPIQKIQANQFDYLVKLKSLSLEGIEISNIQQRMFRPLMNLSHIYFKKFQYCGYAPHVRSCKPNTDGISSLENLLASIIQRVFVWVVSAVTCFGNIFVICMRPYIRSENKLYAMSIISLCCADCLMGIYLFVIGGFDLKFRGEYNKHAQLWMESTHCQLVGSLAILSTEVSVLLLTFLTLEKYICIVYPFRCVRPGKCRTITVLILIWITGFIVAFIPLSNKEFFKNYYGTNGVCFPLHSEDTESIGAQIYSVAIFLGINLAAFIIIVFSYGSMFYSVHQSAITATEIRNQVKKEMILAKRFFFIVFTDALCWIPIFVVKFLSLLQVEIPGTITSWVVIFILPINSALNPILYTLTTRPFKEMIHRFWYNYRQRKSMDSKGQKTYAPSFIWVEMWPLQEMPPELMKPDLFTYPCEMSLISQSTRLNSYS
Kind of assay: competition with 100 pM [125I]-relaxin-3, live COS-7 cells expressing human LGR7; ND denotes no activity was detected.

Assay [3] concerns the target T3, human LGR8 (human, UniProt Q8WXD0 1-754).
T3 construct: whole, on cells; also called LGRB
Kind of assay: competition with 100 pM [125I]-INSL3, live COS-7 cells expressing human LGR8; ND denotes no activity was detected.

Assay [4] addresses T1, human GPCR135. Nature of the assay: cell-based or functional assay.
The target of assay [5] is T4, human GPCR142 (human, UniProt Q8TDU9 1-374). Kind of assay: cell-based or functional assay.
For assay [6], the target named is T4, human GPCR142. Kind of assay: competition with 100 pM [125I]-relaxin-3, COS-7 membranes with human GPCR142.

T4 sequence (Q8TDU9 whole entry L329S, form in doubt): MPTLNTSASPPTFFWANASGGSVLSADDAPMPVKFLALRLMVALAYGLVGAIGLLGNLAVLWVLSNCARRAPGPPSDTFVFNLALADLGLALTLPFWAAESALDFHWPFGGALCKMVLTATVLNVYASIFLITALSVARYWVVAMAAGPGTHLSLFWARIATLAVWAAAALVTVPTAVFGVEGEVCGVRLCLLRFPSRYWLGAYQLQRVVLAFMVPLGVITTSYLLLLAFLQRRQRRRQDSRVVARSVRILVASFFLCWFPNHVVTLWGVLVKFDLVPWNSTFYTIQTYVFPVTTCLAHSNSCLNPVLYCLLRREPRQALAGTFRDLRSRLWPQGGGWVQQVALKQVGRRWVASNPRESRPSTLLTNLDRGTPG
T3 sequence (Q8WXD0 whole entry): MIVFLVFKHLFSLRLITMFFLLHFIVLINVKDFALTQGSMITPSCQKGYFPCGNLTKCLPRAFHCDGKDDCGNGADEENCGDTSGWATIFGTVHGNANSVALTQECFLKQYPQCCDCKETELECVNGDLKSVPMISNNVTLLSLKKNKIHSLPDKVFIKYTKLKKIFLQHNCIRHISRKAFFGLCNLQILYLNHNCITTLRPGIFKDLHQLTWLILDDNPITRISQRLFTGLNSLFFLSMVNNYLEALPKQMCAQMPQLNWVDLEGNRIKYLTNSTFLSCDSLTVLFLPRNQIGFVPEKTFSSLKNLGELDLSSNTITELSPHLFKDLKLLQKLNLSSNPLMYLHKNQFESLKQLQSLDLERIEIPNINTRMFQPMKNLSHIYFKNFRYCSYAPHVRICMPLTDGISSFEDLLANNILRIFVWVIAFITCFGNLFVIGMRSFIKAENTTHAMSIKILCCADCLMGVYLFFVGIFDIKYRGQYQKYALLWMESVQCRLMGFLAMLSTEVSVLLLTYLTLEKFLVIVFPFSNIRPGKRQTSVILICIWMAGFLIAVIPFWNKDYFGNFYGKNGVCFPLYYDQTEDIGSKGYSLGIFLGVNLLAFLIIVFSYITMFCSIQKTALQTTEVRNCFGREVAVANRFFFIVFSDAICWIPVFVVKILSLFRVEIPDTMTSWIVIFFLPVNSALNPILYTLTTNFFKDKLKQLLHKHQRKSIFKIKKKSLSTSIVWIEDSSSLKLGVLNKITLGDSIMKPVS

B1: Relaxin-3/INSL4 (R3/I4) chimeric polypeptide (ligand, human)
chain 1: RAAPYGVRLCGREFIRAVIFTCGGSRW
chain 2: FDPFCCEVICDDGTSVKLC
modifications: disulfide (positions not given here)
notes: domain: A-chain; Two chains joined by disulfide bonds; FLAG tag removed
With B1, the IC50 in assay [1] and in assay [6] was greater than 1000 nM each time. For the same molecule, the values for the binding result in assay [2] and in assay [3] were “no binding (tested: 1 µM)” and “no binding”, respectively. Further, the “EC50, inhibition of forskolin stimulated β-galactosidase expression” value in assay [4] and in assay [5] was greater than 1000 nM each time.
